Measured values from patent US20240270846A1 (published 2024).
Changes are numbered by the printed parent chain. Names and notes keep the numbering of the source.

B1: CE115HA000/GLS3000 T31I one-arm antibody (antibody, human IgG1, kappa, L234A L235A, N297A, name in Kabat numbering)
heavy: QVQLVESGGGVVQPGRSLRLSCAASGFTFSNAWMHWVRQAPGKGLEWVAQIKAKSNNYATYYAESVKGRFTISRDDSKNSLYLQMNSLKTEDTAVYYCRYVHYGAYYGVDAWGQGTTVTVSSASTKGPSVFPLAPSSKSTSGGTAALGCLVKDYFPEPVTVSWNSGALTSGVHTFPAVLQSSGLYSLSSVVTVPSSSLGTQTYICNVNHKPSNTKVDKKVEPKSCDKTHTCPPCPAPEAAGGPSVFLFPPKPKDTLMISRTPEVTCVVVDVSHEDPEVKFNWYVDGVEVHNAKTKPREEQYASTYRVVSVLTVLHQDWLNGKEYKCKVSNKALPAPIEKTISKAKGQPREPQVYTLPPSRCELTKNQVSLSCAVKGFYPSDIAVEWESNGQPENNYKTTPPVLDSDGSFFLVSKLTVDKSRWQQGNVFSCSVMHEALHNHYTQKSLSLSPDYKDDDDK
chain: EPKSSDKTHTCPPCPAPELLGGPSVFLFPPKPKDTLMISRTPEVTCVVVDVSHEDPEVKFNWYVDGVEVHNAKTKPREEQYNSTYRVVSVLTVLHQDWLNGKEYKCKVSNKALPAPIEKTISKAKGQPREPQVCTLPPSRDELTKNQVSLWCLVKGFYPSDIAVEWESNGQPENNYKTTPPVLDSDGSFFLYSKLTVDKSRWQQGNVFSCSVMHEALHNRYTQKSLSLSP
light: DIVMTQSPLSLPVTPGEPASISCRSSQSLVHSNRNIYLHWYQQKPGQAPRLLIYKVSNRFSGVPDRFSGSGSGTDFTLKISRVEAEDVGVYYCGQGTQVPYTFGQGTKLEIKRTVAAPSVFIFPPSDEQLKSGTASVVCLLNNFYPREAKVQWKVDNALQSGNSQESVTEQDSKDSTYSLSSTLTLSKADYEKHKVYACEVTHQGLSSPVTKSFNRGEC
notes: one-arm IgG1
B2: CE115HA000/GLS3000 V94I one-arm antibody (antibody, human IgG1, kappa, L234A L235A, N297A, name in Kabat numbering)
heavy: B1 heavy
chain: B1 chain
light: B1 light with I36T, V99I
notes: one-arm IgG1
B3: CE115HA000/GLS3000 Y32P one-arm antibody (antibody, human IgG1, kappa, L234A L235A, N297A, name in Kabat numbering)
heavy: B1 heavy
chain: B1 chain
light: B1 light with I36T, Y37P
notes: one-arm IgG1
B4: CE115HA000/GLS3000 V94N one-arm antibody (antibody, human IgG1, kappa, L234A L235A, N297A, name in Kabat numbering)
heavy: B1 heavy
chain: B1 chain
light: B1 light with I36T, V99N
notes: one-arm IgG1
B5: CE115HA000/GLS3000 V51I one-arm antibody (antibody, human IgG1, kappa, L234A L235A, N297A, name in Kabat numbering)
heavy: B1 heavy
chain: B1 chain
light: B1 light with I36T, V56I
notes: one-arm IgG1
B6: CE115HA000/GLS3000 Y96L one-arm antibody (antibody, human IgG1, kappa, L234A L235A, N297A, name in Kabat numbering)
heavy: B1 heavy
chain: B1 chain
light: B1 light with I36T, Y101L
notes: one-arm IgG1
B7: CE115HA000/GLS3000 T92L one-arm antibody (antibody, human IgG1, kappa, L234A L235A, N297A, name in Kabat numbering)
heavy: B1 heavy
chain: B1 chain
light: B1 light with I36T, T97L
notes: one-arm IgG1
B8: CE115HA000/GLS3000 T92E one-arm antibody (antibody, human IgG1, kappa, L234A L235A, N297A, name in Kabat numbering)
heavy: B1 heavy
chain: B1 chain
light: B1 light with I36T, T97E
notes: one-arm IgG1
B9: CE115HA000/GLS3000 V51D one-arm antibody (antibody, human IgG1, kappa, L234A L235A, N297A, name in Kabat numbering)
heavy: B1 heavy
chain: B1 chain
light: B1 light with I36T, V56D
notes: one-arm IgG1
B10: CE115HA000/GLS3000 T31P one-arm antibody (antibody, human IgG1, kappa, L234A L235A, N297A, name in Kabat numbering)
heavy: B1 heavy
chain: B1 chain
light: B1 light with I36P
notes: one-arm IgG1
B11: CE115HA000/GLS3000 V94H one-arm antibody (antibody, human IgG1, kappa, L234A L235A, N297A, name in Kabat numbering)
heavy: B1 heavy
chain: B1 chain
light: B1 light with I36T, V99H
notes: one-arm IgG1
B12: CE115HA000/GLS3000 V94F one-arm antibody (antibody, human IgG1, kappa, L234A L235A, N297A, name in Kabat numbering)
heavy: B1 heavy
chain: B1 chain
light: B1 light with I36T, V99F
notes: one-arm IgG1
B13: CE115HA000/GLS3000 T92I one-arm antibody (antibody, human IgG1, kappa, L234A L235A, N297A, name in Kabat numbering)
heavy: B1 heavy
chain: B1 chain
light: B1 light with I36T, T97I
notes: one-arm IgG1
B14: CE115HA000/GLS3000 V51E one-arm antibody (antibody, human IgG1, kappa, L234A L235A, N297A, name in Kabat numbering)
heavy: B1 heavy
chain: B1 chain
light: B1 light with I36T, V56E
notes: one-arm IgG1
B15: CE115HA000/GLS3000 V94A one-arm antibody (antibody, human IgG1, kappa, L234A L235A, N297A, name in Kabat numbering)
heavy: B1 heavy
chain: B1 chain
light: B1 light with I36T, V99A
notes: one-arm IgG1
B16: CE115HA000/GLS3000 Y96F one-arm antibody (antibody, human IgG1, kappa, L234A L235A, N297A, name in Kabat numbering)
heavy: B1 heavy
chain: B1 chain
light: B1 light with I36T, Y101F
notes: one-arm IgG1
B17: CE115HA000/GLS3000 V94L one-arm antibody (antibody, human IgG1, kappa, L234A L235A, N297A, name in Kabat numbering)
heavy: B1 heavy
chain: B1 chain
light: B1 light with I36T, V99L
notes: one-arm IgG1
B18: CE115HA000/GLS3000 V94K one-arm antibody (antibody, human IgG1, kappa, L234A L235A, N297A, name in Kabat numbering)
heavy: B1 heavy
chain: B1 chain
light: B1 light with I36T, V99K
notes: one-arm IgG1
B19: CE115HA000/GLS3000 V94G one-arm antibody (antibody, human IgG1, kappa, L234A L235A, N297A, name in Kabat numbering)
heavy: B1 heavy
chain: B1 chain
light: B1 light with I36T, V99G
notes: one-arm IgG1
B20: CE115HA000/GLS3000 Y32F one-arm antibody (antibody, human IgG1, kappa, L234A L235A, N297A, name in Kabat numbering)
heavy: B1 heavy
chain: B1 chain
light: B1 light with I36T, Y37F
notes: one-arm IgG1
B21: CE115HA000/GLS3000 Y96D one-arm antibody (antibody, human IgG1, kappa, L234A L235A, N297A, name in Kabat numbering)
heavy: B1 heavy
chain: B1 chain
light: B1 light with I36T, Y101D
notes: one-arm IgG1
B22: CE115HA000/GLS3000 V94E one-arm antibody (antibody, human IgG1, kappa, L234A L235A, N297A, name in Kabat numbering)
heavy: B1 heavy
chain: B1 chain
light: B1 light with I36T, V99E
notes: one-arm IgG1
B23: CE115HA000/GLS3000 Y96H one-arm antibody (antibody, human IgG1, kappa, L234A L235A, N297A, name in Kabat numbering)
heavy: B1 heavy
chain: B1 chain
light: B1 light with I36T, Y101H
notes: one-arm IgG1
B24: CE115HA000/GLS3000 V94M one-arm antibody (antibody, human IgG1, kappa, L234A L235A, N297A, name in Kabat numbering)
heavy: B1 heavy
chain: B1 chain
light: B1 light with I36T, V99M
notes: one-arm IgG1
B25: CE115HA000/GLS3000 T31K one-arm antibody (antibody, human IgG1, kappa, L234A L235A, N297A, name in Kabat numbering)
heavy: B1 heavy
chain: B1 chain
light: B1 light with I36K
notes: one-arm IgG1
B26: CE115HA000/GLS3000 V94D one-arm antibody (antibody, human IgG1, kappa, L234A L235A, N297A, name in Kabat numbering)
heavy: B1 heavy
chain: B1 chain
light: B1 light with I36T, V99D
notes: one-arm IgG1
B27: CE115HA000/GLS3000 T92A one-arm antibody (antibody, human IgG1, kappa, L234A L235A, N297A, name in Kabat numbering)
heavy: B1 heavy
chain: B1 chain
light: B1 light with I36T, T97A
notes: one-arm IgG1
B28: CE115HA000/GLS3000 Y96E one-arm antibody (antibody, human IgG1, kappa, L234A L235A, N297A, name in Kabat numbering)
heavy: B1 heavy
chain: B1 chain
light: B1 light with I36T, Y101E
notes: one-arm IgG1
B29: CE115HA000/GLS3000 V51G one-arm antibody (antibody, human IgG1, kappa, L234A L235A, N297A, name in Kabat numbering)
heavy: B1 heavy
chain: B1 chain
light: B1 light with I36T, V56G
notes: one-arm IgG1
B30: CE115HA000/GLS3000 T31N one-arm antibody (antibody, human IgG1, kappa, L234A L235A, N297A, name in Kabat numbering)
heavy: B1 heavy
chain: B1 chain
light: B1 light with I36N
notes: one-arm IgG1
B31: CE115HA000/GLS3000 Y32D one-arm antibody (antibody, human IgG1, kappa, L234A L235A, N297A, name in Kabat numbering)
heavy: B1 heavy
chain: B1 chain
light: B1 light with I36T, Y37D
notes: one-arm IgG1
B32: CE115HA000/GLS3000 T92D one-arm antibody (antibody, human IgG1, kappa, L234A L235A, N297A, name in Kabat numbering)
heavy: B1 heavy
chain: B1 chain
light: B1 light with I36T, T97D
notes: one-arm IgG1
B33: CE115HA000/GLS3000 V51P one-arm antibody (antibody, human IgG1, kappa, L234A L235A, N297A, name in Kabat numbering)
heavy: B1 heavy
chain: B1 chain
light: B1 light with I36T, V56P
notes: one-arm IgG1

Target: T1, CD3 epsilon homodimer protein (UniProt P07766 23-126)
T1 construct: also called CD3 (CD3 epsilon)
Test: SPR (Biacore T200), CD3e homodimer on CM4 chip, antibody as analyte; KD ratio vs unaltered GLS3000;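 further: CD3 epsilon homodimer amine-coupled to the sensor surface, antibodies injected as analyte at 25 °C with HBS-EP+ running buffer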
Protocol: An appropriate amount of CD3 epsilon homodimer protein was immobilized onto Sensor chip CM4 (GE Healthcare Japan Corp.) by the amine coupling method. Then, the antibody having an appropriate concentration was injected thereto as an analyte and allowed to interact with the CD3 epsilon homodimer protein on the sensor chip. Then, the sensor chip was regenerated by the injection of 10 mmol/L glycine-HCl (pH 1.5). The assay was conducted at 25 degrees C., and HBS-EP+(GE Healthcare Japan Corp.) was used as a running buffer. […] Each parameter was calculated using Biacore T200 Evaluation Software (GE Healthcare Japan Corp.).
Specifically, when the amount of the GLS3000-containing antibody bound was defined as X and the amount of the L chain one-amino acid altered form bound was defined as Y, a value of Z (ratio of amounts bound)=Y/X was used.

T1 sequence (P07766 23-126): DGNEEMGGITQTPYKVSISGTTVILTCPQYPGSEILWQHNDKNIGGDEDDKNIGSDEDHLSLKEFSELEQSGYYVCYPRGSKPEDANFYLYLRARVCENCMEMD

KD ratio to GLS3000 [ratio] | Binder
1.1 | B1
1.46 | B2
62 | B3
0.96 | B4
0.69 | B5
1.84 | B6
1.61 | B7
19.6 | B8
1.5 | B9
10.8 | B10
1.16 | B11
1.75 | B12
1.91 | B13
0.88 | B14
1.05 | B15
0.86 | B16
3.06 | B17

KD ratio to GLS3000 [ratio] | Binder
0.91 | B18
2.59 | B19
4.51 | B20
40.9 | B21
1.18 | B22
80.3 | B23
2.74 | B24
0.88 | B25
1.05 | B26
1.35 | B27
46.8 | B28
0.83 | B29
4.46 | B30
25.9 | B31
11.2 | B32
6 | B33
